Laboratory results: US9957535B2, “Methods, reagents and cells for biosynthesizing compounds” (INVISTA North America S.á r.l., priority 2014, dated 2018)

How the values were obtained:
Assay type in all cases: biochemical
[1] = ω-transaminase enzyme activity assay, forward direction (glutarate semialdehyde to 5-aminopentanoate), pyruvate formation by RP-HPLC; conditions: for ω-transaminase acceptance of glutarate semialdehyde, synthesizing 5-aminopentanoate, concluded from reversibility: concluded from confirmed reversibility of the ω-transaminase activity
Experimental: (§1) A nucleotide sequence encoding an N-terminal His-tag was added to the genes from Chromobacterium violaceum and Rhodobacter sphaeroides encoding the ω-transaminases of SEQ ID NOs: 8 and 10 respectively (see FIG. 10) such that N-terminal HIS tagged ω-transaminases could be produced. Each of the resulting modified genes was cloned into a pET21a expression vector under control of the T7 promoter and each expression vector was transformed into a BL21[DE3] E. coli host. The resulting recombinant E. coli strains were cultivated at 37° C. in a 250 mL shake flask culture containing 50 mL LB media and antibiotic selection pressure, with shaking at 230 rpm. Each culture was induced overnight at 16° C. using 1 mM IPTG.
(§2) The pellet from each induced shake flask culture was harvested via centrifugation. Each pellet was resuspended and lysed via sonication. The cell debris was separated from the supernatant via centrifugation and the cell free extract was used immediately in enzyme activity assays.
Enzyme activity in the forward direction (i.e., glutarate semialdehyde to 5-aminopentanoate) was confirmed for the transaminase of SEQ ID NO 10. Enzyme activity assays were performed in a buffer composed of a final concentration of 50 mM HEPES buffer (pH=7.5), 10 mM glutarate semialdehyde, 10 mM L-alanine and 100 μM pyridoxyl 5′ phosphate. Each enzyme activity assay reaction was initiated by adding a cell free extract of the ω-transaminase gene product or the empty vector control to the assay buffer containing the glutarate semialdehyde and incubated at 25° C. for 4 h, with shaking at 250 rpm. The formation of pyruvate was quantified via RP-HPLC.

[2] = ω-transaminase enzyme activity assay (N5-acetyl-1,5-diaminopentane to N5-acetyl-5-aminopentanal), L-alanine formation by RP-HPLC; conditions: for ω-transaminase activity converting N5-acetyl-1,5-diaminopentane to N5-acetyl-5-aminopentanal (substrate acceptance): cell free extract, 10 mM N5-acetyl-1,5-diaminopentane, 10 mM pyruvate, pH 7.5, 25° C., 4 h, against empty vector control (FIG. 15); for ω-transaminase acceptance of N5-acetyl-5-aminopentanal forming N5-acetyl-1,5-diaminopentane, concluded from reversibility: concluded from reversibility of the ω-transaminase activity (Example 1)
Experimental: The activity of the N-terminal His-tagged ω-transaminases of SEQ ID NOs: 8, 10-13 (see Example 3, and FIG. 10) for converting N5-acetyl-1,5-diaminopentane to N5-acetyl-5-aminopentanal was assayed using a buffer composed of a final concentration of 50 mM HEPES buffer (pH=7.5), 10 mM N5-acetyl-1,5-diaminopentane, 10 mM pyruvate and 100 μM pyridoxyl 5′ phosphate. Each enzyme activity assay reaction was initiated by adding a cell free extract of the ω-transaminase or the empty vector control to the assay buffer containing the N5-acetyl-1,5-diaminopentane then incubated at 25° C. for 4 h, with shaking at 250 rpm. The formation of L-alanine was quantified via RP-HPLC.

[3] = carboxylate reductase enzyme activity assay (glutarate semialdehyde to pentanedial), NADPH consumption at 340 nm; conditions: purified enzyme enhanced by gene product of sfp, 2 mM glutarate semialdehyde, 1 mM ATP, 1 mM NADPH, pH 7.5, room temperature, 20 min, against empty vector control (FIG. 16)
Experimental: The N-terminal His-tagged carboxylate reductase of SEQ ID NO 7 (see Example 3 and FIG. 10) was assayed using glutarate semialdehyde as substrate. The enzyme activity assay was performed in triplicate in a buffer composed of a final concentration of 50 mM HEPES buffer (pH=7.5), 2 mM glutarate semialdehyde, 10 mM MgCl2, 1 mM ATP and 1 mM NADPH. The enzyme activity assay reaction was initiated by adding purified carboxylate reductase and phosphopantetheine transferase or the empty vector control to the assay buffer containing the glutarate semialdehyde and then incubated at room temperature for 20 min. The consumption of NADPH was monitored by absorbance at 340 nm.

[4] = ω-transaminase enzyme activity assay, reverse direction (5-aminopentanoate to glutarate semialdehyde), L-alanine formation from pyruvate by RP-HPLC; conditions: cell free extract, 10 mM 5-aminopentanoate, 10 mM pyruvate, pH 7.5, 25° C., 4 h, against empty vector control (FIG. 18)
Experimental: as §1, §2
Enzyme activity assays in the reverse direction (i.e., 5-aminopentanoate to glutarate semialdehyde) were performed in a buffer composed of a final concentration of 50 mM HEPES buffer (pH=7.5), 10 mM 5-aminopentanoate, 10 mM pyruvate and 100 μM pyridoxyl 5′ phosphate. […] The formation of L-alanine from pyruvate was quantified via RP-HPLC.

B1: SEQ ID NO 10: Pseudomonas syringae ω-transaminase (Genbank Accession No. AAY39893.1), N-terminal HIS tagged; b286 says Rhodobacter sphaeroides (protein, listed as Pseudomonas syringae)
chain: MSANNPQTLEWQALSSEHHLAPFSDYKQLKEKGPRIITRAEGVYLWDSEGNKILDGMSGLWCVAIGYGREELADAASKQMRELPYYNLFFQTAHPPVLELAKAISDIAPEGMNHVFFTGSGSEGNDTMLRMVRHYWALKGQPNKKTIISRVNGYHGSTVAGASLGGMTYMHEQGDLPIPGVVHIPQPYWFGEGGDMTPDEFGIWAAEQLEKKILELGVENVGAFIAEPIQGAGGVIVPPDSYWPKIKEILSRYDILFAADEVICGFGRTSEWFGSDFYGLRPDMMTIAKGLTSGYVPMGGLIVRDEIVAVLNEGGDFNHGFTYSGHPVAAAVALENIRILREEKIVERVRSETAPYLQKRLRELSDHPLVGEVRGVGLLGAIELVKDKTTRERYTDKGAGMICRTFCFDNGLIMRAVGDTMIIAPPLVISFAQIDELVEKARTCLDLTLAVLQG
modifications: N-terminal His tag
notes: b286 says Rhodobacter sphaeroides
Which “ω-transaminase activity converting glutarate semialdehyde to 5-aminopentanoate (substrate acceptance)” value ([1]; cell free extract, 10 mM glutarate semialdehyde, 10 mM L-alanine, pH 7.5, 25° C., 4 h, against empty vector control (FIG. 19)) does the source give for B1 here?
Its value is “accepted glutarate semialdehyde as substrate”.

What about the “ω-transaminase acceptance of glutarate semialdehyde, synthesizing 5-aminopentanoate, concluded from reversibility” value [1] of the same molecule?
Its value is “accepted glutarate semialdehyde as substrate and synthesized 5-aminopentanoate”.

And the “ω-transaminase activity converting N5-acetyl-1,5-diaminopentane to N5-acetyl-5-aminopentanal (substrate acceptance)” value [2]?
The value was “accepted N5-acetyl-1,5-diaminopentane as substrate”.

What about the “ω-transaminase acceptance of N5-acetyl-5-aminopentanal forming N5-acetyl-1,5-diaminopentane, concluded from reversibility” value [2] of the same molecule?
The value was “accept N5-acetyl-5-aminopentanal as substrate forming N5-acetyl-1,5-diaminopentane”.

B2: SEQ ID NO 7: Segniliparus rotundus carboxylate reductase (Genbank Accession No. ADG98140.1), N-terminal HIS tagged (protein, listed as Segniliparus rotundus)
chain: MTQSHTQGPQASAAHSRLARRAAELLATDPQAAATLPDPEVVRQATRPGLRLAERVDAILSGYADRPALGQRSFQTVKDPITGRSSVELLPTFDTITYRELRERATAIASDLAHHPQAPAKPGDFLASIGFISVDYVAIDIAGVFAGLTAVPLQTGATLATLTAITAETAPTLFAASIEHLPTAVDAVLATPSVRRLLVFDYRAGSDEDREAVEAAKRKIADAGSSVLVDVLDEVIARGKSAPKAPLPPATDAGDDSLSLLIYTSGSTGTPKGAMYPERNVAHFWGGVWAAAFDEDAAPPVPAINITFLPLSHVASRLSLMPTLARGGLMHFVAKSDLSTLFEDLKLARPTNLFLVPRVVEMLYQHYQSELDRRGVQDGTREAEAVKDDLRTGLLGGRILTAGFGSAPLSAELAGFIESLLQIHLVDGYGSTEAGPVWRDGYLVKPPVTDYKLIDVPELGYFSTDSPHPRGELAIKTQTILPGYYKRPETTAEVFDEDGFYLTGDVVAQIGPEQFAYVDRRKNVLKLSQGEFVTLAKLEAAYSSSPLVRQLFVYGSSERSYLLAVIVPTPDALKKFGVGEAAKAALGESLQKIARDEGLQSYEVPRDFIIETDPFTVENGLLSDARKSLRPKLKEHYGERLEAMYKELADGQANELRDIRRGVQQRPTLETVRRAAAAMLGASAAEIKPDAHFTDLGGDSLSALTFSNFLHDLFEVDVPVGVIVSAANTLGSVAEHIDAQLAGGRARPTFATVHGKGSTTIKASDLTLDKFIDEQTLEAAKHLPKPADPPRTVLLTGANGWLGRFLALEWLERLAPAGGKLITIVRGKDAAQAKARLDAAYESGDPKLAGHYQDLAATTLEVLAGDFSEPRLGLDEATWNRLADEVDFISHPGALVNHVLPYNQLFGPNVAGVAEIIKLAITTRIKPVTYLSTVAVAAGVEPSALDEDGDIRTVSAERSVDEGYANGYGNSKWGGEVLLREAHDRTGLPVRVFRSDMILAHQKYTGQVNATDQFTRLVQSLLATGLAPKSFYELDAQGNRQRAHYDGIPVDFTAESITTLGGDGLEGYRSYNVFNPHRDGVGLDEFVDWLIEAGHPITRIDDYDQWLSRFETSLRGLPESKRQASVLPLLHAFARPGPAVDGSPFRNTVFRTDVQKAKIGAEHDIPHLGKALVLKYADDIKQLGLL
modifications: N-terminal His tag
For B2, which “carboxylate reductase activity converting glutarate semialdehyde to pentanedial (substrate acceptance)” value [3] is on record?
Its value is “accepted glutarate semialdehyde as substrate”.

B3: SEQ ID NO 8: Chromobacterium violaceum ω-transaminase (Genbank Accession No. AAQ59697.1), N-terminal HIS tagged (protein, listed as Chromobacterium violaceum)
chain: MQKQRTTSQWRELDAAHHLHPFTDTASLNQAGARVMTRGEGVYLWDSEGNKIIDGMAGLWCVNVGYGRKDFAEAARRQMEELPFYNTFFKTTHPAVVELSSLLAEVTPAGFDRVFYTNSGSESVDTMIRMVRRYWDVQGKPEKKTLIGRWNGYHGSTIGGASLGGMKYMHEQGDLPIPGMAHIEQPWWYKHGKDMTPDEFGVVAARWLEEKILEIGADKVAAFVGEPIQGAGGVIVPPATYWPEIERICRKYDVLLVADEVICGFGRTGEWFGHQHFGFQPDLFTAAKGLSSGYLPIGAVFVGKRVAEGLIAGGDFNHGFTYSGHPVCAAVAHANVAALRDEGIVQRVKDDIGPYMQKRWRETFSRFEHVDDVRGVGMVQAFTLVKNKAKRELFPDFGEIGTLCRDIFFRNNLIMRACGDHIVSAPPLVMTRAEVDEMLAVAERCLEEFEQTLKARGLA
modifications: N-terminal His tag
For B3, which “ω-transaminase activity converting 5-aminopentanoate to glutarate semialdehyde (substrate acceptance)” value [4] is on record?
Its value is “accepted 5-aminopentanote as substrate”.

And the “ω-transaminase acceptance of glutarate semialdehyde, synthesizing 5-aminopentanoate, concluded from reversibility” value [1]?
The value was “accepted glutarate semialdehyde as substrate and synthesized 5-aminopentanoate”.

And the “ω-transaminase activity converting N5-acetyl-1,5-diaminopentane to N5-acetyl-5-aminopentanal (substrate acceptance)” value [2]?
The value was “accepted N5-acetyl-1,5-diaminopentane as substrate”.

What about the “ω-transaminase acceptance of N5-acetyl-5-aminopentanal forming N5-acetyl-1,5-diaminopentane, concluded from reversibility” value [2] of the same molecule?
Its value is “accept N5-acetyl-5-aminopentanal as substrate forming N5-acetyl-1,5-diaminopentane”.
